Test: soluble on expression in E. coli; label from the status in PepcDB or PDB records

| Sequence | soluble on expression in E. coli |
| --- | --- |
| MSTHLLHALWLKNSGLHLWIEQVEGHKIVLSDAVPDNTFPDSVATLIRGKRFTHQVKTKLLTPKGREVTLQLPTIAFTPEQAVRVLSQIAAITPMMASSAQRATLAPDLMWMVRLYQGLEQFVRAGRLTIKLGYADHQWWPTWQLSSGLQERGWIAQMTAAAPGVLIANAGSSVAEDIADELPHWIANFLLQDLLDTPRSSEWHSFPEALMRSTPLRRGTAQLVSALNEWRDSMTSVSVQLVFIVEEPSKDREDRIDPADMLWPIRVRVRSGVDSPQPIMLSHYDSATKERLNALRREAILVAPILEKQGTDSNVTPTQLFELQREEGAGDWDCYVTTDQLVEFIGDAAARLKSRGFNVLLPRSWDQQETKAHLRLSDPAEASTQATIGLDKIVDYDWHMSVGDIELTEAEMVELVRSKSGLIHLRGEWVMADTAAIRRIGDYMKDVAAQSRKRKKQALDTAVMEAELAKANDDPRWPMLEARAEKLAEEFNNEFAEFGQVTLAELRELALKAQENEPIAYTGSPWHASLAGGSMGKDSPAPQRVSI | not soluble |
| MAEREQSNDSARTDVPAIVSLRTRELDTGEGRMQWASTLERLYCETDVAWPEPRRHFDAEWGGRPFGDLHVSTIRADAHTVVRSPAMIQSDSGEGYLVCLVTDGSVEVRQSGRATVVEPGSFALLDCAAPFVFHSPAPFRQVVVRSPREVLTSRLPGRIVEHGTARSIHGDTGAGGLVGRLFVDIADMDAPMSQGAAVSFASSAVDMLATALTEGLLATSAADLHRTEDLRRVQRVIEQNLHDADITLSDIAAAAGMSLRTVHKLFNAEGTTTRAWLYQARLEAARKYLLTTDLSVADVSECAGFRDVSHFSRLFRSTFGSSPGLYRKEHARRVS | not soluble |
| MGSSHHHHHHSSGRENLYFQGHMKNLLDLSYEELVTEITNLGLERYRADQILDWVFDKKVNNFDEMTNLSKKHRALLKEHFSISFLKLLDKKVSRIDGTTKFLWELEDGNTIESVMLFHPDRITACISTQVGCPVKCIFCATGMSGFVRNLTTGEIVAQILSMEKEEKKKIGNVVYMGMGEPLLNYENTIKSIRILNHKKMGNIGIRRITISTVGIPDRIIQLAEEGLDVKLALSLHAPTNFKRDQLVPLNKKYSIEEILNAVKIYQRKTGNRVTIEYVLIRGINDEISDAKKLAEILRNMKVFVNLIPVNPTVEGLRRPSRERLLTFKRILLENGIEAEIRREKGTDIEAACGQLRLKRIKSRS | soluble |
| MGIKTQKNFICLKRTFSMNLRDAISVANPVQLEEEIKHDEVVSFLKSKNLLDKPVILNVEGKKVAKNFVSSRETLGKYLGVDAYSIARELSKIEDREAEIRVEPFSSLAMKKVDVNLQELPVIKYFPRDGGRYITAGIVIAQRNGVYNASIHRMLLLDESRVAARLVPPRHTYLMWREAVEREEELEVAVVIGTHPLFLFASATRVPSGKEFSYAAGLMGRLTLYRKGEMLVPDSEIILFGRITAETAKEGPFVDITGTYDIVRDEPVIVFDEMYVKEDYIYYSITPAGKEHQMLMGVPYEPVIYRFVSNVCKVKNVITTPGSCHYFHCVVQIEKKSEGDGKNAIIAALAANPSMKGVVVVDDDIDILSYEDMEFAIATRFQPDRDLVVVKGARGSSLDPSADKTTSKWGIDATKPLGKEGFDRVVLEHHHHHH | not soluble |
| MTKPLDGINVLDFTHVQAGPACTQMMGFLGANVIKIERRGSGDMTRGWLQDKPNVDSLYFTMFNCNKRSIELDMKTPEGKELLEQMIKKADVMVENFGPGALDRMGFTWEYIQELNPRVILASVKGYAEGHANEHLKVYENVAQCSGGAAATTGFWDGPPTVSGAALGDSNSGMHLMIGILAALEIRHKTGRGQKVAVAMQDAVLNLVRIKLRDQQRLERTGILAEYPQAQPNFAFDRDGNPLSFDNITSVPRGGNAGGGGQPGWMLKCKGWETDADSYVYFTIAANMWPQICDMIDKPEWKDDPAYNTFEGRVDKLMDIFSFIETKFADKDKFEVTEWAAQYGIPCGPVMSMKELAHDPSLQKVGTVVEVVDEIRGNHLTVGAPFKFSGFQPEITRAPLLGEHTDEVLKELGLDDAKIKELHAKQVV | soluble |
| MGSDKIHHHHHHMIRNLTPSDFAQVISLGEQVHGANYLDLDTLKHYYQLGIKDGINAHFVAEQAGEIIGFRLTFTANQWTLDEWCSPALWGVEIDKVCYFKSNTLAEKARGQGIGGDLLAQSIAAVKAQGAKAGVSHLWKQSPHNAAVRYFTKAGGRLIKEHPGRWNQANDGSDYLCVLCGNDCHCTACEMLINF | not soluble |
| GGSGPLKPEEHEDILNKLLDPELAQSERTEALQQLRVNYGSFVSEYNDLEEKVAHAKEENLNMHQMLDQTLLELNNM | soluble |
| SKCIPYSVLLKDLEMRNLRELEDLIIEAVYTDIIQGKLDQRNQLLEVDFCIGRDIRKKDINNIVKTLHEWCDGCEAVLLGIEQQVLRANQYKENHNRTQQQVEAEVTNIKKTLKATASSSAQEMEQQLAERECPPHAEQRQPTKKMSKVKGLVSSRH | soluble |
| MGSDKIHHHHHHMRYRRFGRTELAMPVFSCGGMRYQQSWKDVDWPEISVESQANLEATLARSLELGINHIETARYYGSSERQLGKALAAYPRSEIILQTKVPPSEDPAEFLETFDRSMSLLQTDYVDLLSIHGVNNAELLDWALRKGGSLDVAERLQAEGRVRHIGFSTHAPLPVILEAIASDRLSYINLHWYYIFQTNQAALEAAQKHDMGVFIISPSDKGGHLYSPPQKLVDLCEPLHPMVFNDLFCLSQPQIHTLSIGAARPSDFDRHLETLPLLDQADQVLPPILERLEAAATAALGQDWLDTWMVGLPTPDTTPGEINIPTIVWLYNLVQAFDMVKYAKARYNLLGNGGHWFPGQRAGQFDPVALSAALDQSPHRDRILQILKEMDAWLGGESVVRLSQSS | not soluble |
| MRHGCHTVIASRSLPRVLTAARKLAGATGRRCLPLSMDVRAPPAVMAAVDQALKEFGRIDILINCAAGNFLCPAGALSFNAFKTVMDIDTSGTFNVSRVLYEKFFRDHGGVIVNITATLGNRGQALQVHAGSAKAAVDAMTRHLAVEWGPQNIRVNSLAPGPISGTEGLRRLGGPQASLSTKVTASPLQRLGNKTEIAHSVLYLASPLASYVTGAVLVADGGAWLTFPNGVKGLPDFASFSAKL | not soluble |
| SASGYQFGSVDQVEGGSVQYTRKYLGTGNLNDLYVGIGATPFKNFSIGANASSLFGRFTHSRQVIFSTEAPYNPVHLSTLYLKAAKFDFGMQYHLLLKSDRSLVIGAVYSPRVKMHSELTQIKNQVQNGVVVESETQEYIKGMDYYTLPHTLGIGFSYEKKDKLLLGADVQYSKWKGEKFYKSDCKFQDRIRVSLGGEIIPDINAVGMWPKVRYRFGLHGENSYLKVPTKGGV | not soluble |
| MGSDKIHHHHHHMYCNMLISLLTFISVEILYNKSNKKYGGNDMSIVQLYDITQIKSFIEHSNYESASYLYKLPQQYNEIDVLITDAIESPGVFSIKENDSIKAIILSFAYDKNKFKVIGPFVADNYVLSVDTFETLFKAMTSNQPDDAVFNFSFEEGIQQYKPLMKVIQASYNFTDYYIEARTRLEEDMHQPNIIPYHKGFYRAFSKLHTTTFKYQAQSPQDIIDSLDDHHHLFLFVSEGLLKGYLYLEIDSQQSIAEIKYFSSHVDYRLKGIAFELLAYALQYAFDNFDIRKVYFKIRNKNNKLIERFNGLGFHINYEYIKFKFESRNVKDQTIPE | not soluble |
| MAHHHHHHMASPASTNPAHDHFETFVQAQLCQDVLSSFQGLCRALGVESGGGLSQYHKIKAQLNYWSAKSLWAKLDKRASQPVYQQGQACTNTKCLVVGAGPCGLRAAVELALLGARVVLVEKRIKFSRHNVLHLWPFTIHDLRALGAKKFYGRFCTGTLDHISIRQLQLLLLKVALLLGVEIHWGVKFTGLQPPPRKGSGWRAQLQPNPPAQLASYEFDVLISAAGGKFVPEGFTIREMRGKLAIGITANFVNGRTVEETQVPEISGVARIYNQKFFQSLLKATGIDLENIVYYKDETHYFVMTAKKQCLLRLGVLRQDLSETDQLLGKANVVPEALQRFARAAADFATHGKLGKLEFAQDARGRPDVAAFDFTSMMRAESSARVQEKHGARLLLGLVGDCLVEPFWPLGTGVARGFLAAFDAAWMVKRWAEGAGPLEVLAERESLYQLLSQTSPENMHRNVAQYGLDPATRYPNLNLRAVTPNQVQDLYDMMDKE | soluble |

Source: the DeepSol protein solubility set
